Measured values taken from the supplement of paper PMC9170038.

Tested on: MS2 coat protein
Assay: apparent KD of MS2 coat protein; designed switch direction (-1 OFF switch, 1 ON switch): -1; higher = weaker reporter binding
Summary of the method: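 An oligonucleotide input, 200 uM small-molecule ligand, or no input was present during titration of SNAP-549-labelled MS2 coat protein, which was doubled from 0.7 or 1.5 nM to 3 µM. Designed RNA switches had been transcribed on Illumina chips by stalled E. coli RNA polymerase. Apparent KD per design is the median over clusters of curves fitted to normalised cluster fluorescence.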

[1] = Eterna round: R95, input ligand: microRNA oligo, concentration not stated
[2] = input ligand: microRNA oligo, concentration not stated
[3] = Eterna round: R95, input ligand: FMN 200 uM
[4] = Eterna round: R95, input ligand: none

Sequence	apparent KD of MS2 coat protein [1]	apparent KD of MS2 coat protein (input ligand: FMN 200 uM)	apparent KD of MS2 coat protein [2]	apparent KD of MS2 coat protein (input ligand: none)	apparent KD of MS2 coat protein [3]	apparent KD of MS2 coat protein [4]
AGAUCCUGAGUCAGGAUAUAGAGGCGAAAGCCUGGCUAGAAGGGACAUGAGGAUCACCCAUGUGGGUUCGUGCC [Geariat] (puzzle: Brourd's mod of Exclusion 4)	19.6 nM					
AGAUGCUCAAGUCGACAUGAGGAUCACCCAUGUACAGUUAAUGAGGAUAUCUGAGACAAAUAGUAGGAGAAGGCGUGAACAUGA [Ex NG3 #10] (Eterna round: R96, puzzle: Exclusion NG 3)		55.2 nM	26.5 nM	57.6 nM		
AGAUGUAGAAACCGAUCCUACAUGAGGAUCACCCAUGUAGCAAGACGUGCACGCGAAGCUCGUCAGACUACCAGAAG [salish99_TOv1_r3_082] (puzzle: Sensor v3, turn-off variant 1)	188 nM				270 nM	352 nM
AGAUGUAGAUACCGGUCCUACAUGAGGAUCACCCAUGUAGCUUGACGUGCGGGCGGCGCUCGUCGGUCUACCAGUAG [salish99_TOv1_r3_100] (puzzle: Sensor v3, turn-off variant 1)	28.6 nM				27.3 nM	36.2 nM
AGAUUACGUUAGGAUAUCCGGCCUGACGAGGAUGGAGAAGGAGCGACAUGAGGAUCACCCAUGUGUGGCACUCC [Eternabot (L1) Solution 76] (Eterna round: R97, puzzle: Exclusion 6)		17.7 nM		18.3 nM		
AGCAGCCAAUCAGGAUAUACUUUCAGGUGAAGCGUCGCGGGCGAUAACAUGAGGAUCACCCAUGUGUAGAAGGGAUGCGCAAAC [Eternabot solution 39] (Eterna round: R96, puzzle: Exclusion NG 2)		45.8 nM	30.3 nM	41.2 nM		
AGCAUGCAGUAGGAUAUCGAUCCGCAAUAUGAACGAGAAGGGCUGACAUGAGGAUCACCCAUGUGCGUCCUAGG [jl-ex6-4.40 ViennaUCT mod] (Eterna round: R97, puzzle: Exclusion 6)		19.4 nM		20.2 nM		
AGCCAUACAGGAUAUGCCCGGGAUAACAUGAGGAUCACCCAUGUGACCGAUUCAUGUCCUGCAGAAGGGUAUGGGA [Mod of ViennaUCT 3 - Jieux - Exclusion 5] (Eterna round: R97, puzzle: Exclusion 5)		31.7 nM		16.8 nM		
AGCGAGGCAGGAUAUACAUGAGGAUCACCCAUGUACUUGUAUGGCGUGGAACAUCGUGGUAGAAGGGCCGCGCC [EX3 #79] (Eterna round: R97, puzzle: Exclusion 3)		33.5 nM		23.7 nM		
AGCGGAGAUGUCAGGAUAUCUCGCUCGGUGGGUUGAGAGAAGGGACAUGAGGAUCACCCAUGUCUGCAAUUGUC [Eternabot (Original) Solution 46] (Eterna round: R97, puzzle: Brourd's mod of Exclusion 4)		19.9 nM		17.9 nM		
AGCGUGGCUCAGGAUAUCAGCCCUGUGGAGUUCUGAGAAGGGAGCACAUGAGGAUCACCCAUGUGAAAGGGUAC [Useratarin] (puzzle: Exclusion 6)	24.7 nM				103 nM	29.7 nM
AGCUAGUCAGGAUAUACGCAAACGAACGAAGCAGUGAAGGGACAUGAGGAUCACCCAUGUAGAAGGGACUAGCA [Diamond 30] (Eterna round: R96, puzzle: Exclusion 2)		121 nM	17.4 nM	24.9 nM		
AGCUGUGGCCGAGGAUAUCACAUGAGGAUCACCCAUGUACAUGAUUAGGCCUGGUAACAGGCUCAUGAGAAGGCGGUCUCAGCA [Eli eng2 - 013] (Eterna round: R96, puzzle: Exclusion NG 2)		16.1 nM	16.4 nM	22.4 nM		
AGCUGUGGCCGAGGAUAUCACGAACCAUGGAAAACCAUGGAACUCAUACAUGAGGAUCACCCAUGUGAGAAGGCGGUCUCAGCA [Eli eng2 - 019] (Eterna round: R96, puzzle: Exclusion NG 2)			27 nM			
AGCUGUGGCCGAGGAUAUCCAACUUCAAAUACCGACGUAUAGUCGGACAUGAGGAUCACCCAUGUGGAGAAGGCGGUCUCAGCA [Eli eng2 - 038] (Eterna round: R96, puzzle: Exclusion NG 2)		24.2 nM	12.5 nM	15.6 nM		
AGCUGUGGCCGAGGAUAUCCACAUGAGGAUCACCCAUGUGAAUACCCAAUUAAGGGAUAACCGUGGGAGAAGGCGGUCUCAGCA [Eli eng2 - 048] (Eterna round: R96, puzzle: Exclusion NG 2)		80.9 nM	112 nM	167 nM		
AGCUGUGGCCGAGGAUAUCCAGCCUUAAAUACCGACGUAUAGUCGGACAUGAGGAUCACCCAUGUGGAGAAGGCGGUCUCAGCA [Eli eng2 - 045] (Eterna round: R96, puzzle: Exclusion NG 2)		126 nM	36.4 nM	43.6 nM		
AGCUGUGGCCGAGGAUAUCUAAACCUCAAAACCGAGGUAUACUCGGACAUGAGGAUCACCCAUGUAGAGAAGGCGGUCUCAGCA [Eli eng2 - 036] (Eterna round: R96, puzzle: Exclusion NG 2)		107 nM	190 nM	443 nM		
AGCUGUGGCCGAGGAUAUCUAAUAACUCAAACCGAAAUAUAAUCGGACAUGAGGAUCACCCAUGUAGAGAAGGCGGUCUCAGCA [Eli eng2 - 063] (Eterna round: R96, puzzle: Exclusion NG 2)			69.8 nM			
AGCUGUGGCCGAGGAUAUCUGUUCCAAAUAACCGACGUAUAGUCGGACAUGAGGAUCACCCAUGUAGAGAAGGCGGUCUCAGCA [Eli eng2 - 101] (Eterna round: R96, puzzle: Exclusion NG 2)		136 nM	38 nM	63.9 nM		
AGCUUUGGAGGAUAUUGAGCGGAAAACAUGAGGAUCACCCAUGUAAGUGGGCGAAAUGUAUAAGAAGGCCGAAGGU [Eternabot (L2) Solution 15] (Eterna round: R97, puzzle: Exclusion 5)		205 nM		278 nM		
AGCUUUUUGCUCGUCUUAUACAUGAGGAUCACCCAUGUAUUGGACCACAUCGAUAGAUGUGGACCAAGAAGCAUGGG [Omdei Mir OFFv1 C1] (Eterna round: R97, puzzle: Sensor, turn-off variant 1)		195 nM		109 nM		
AGGAAGCAAGGAUAUACGAGGAGAAGGUGUCCAUCUAAAUGACAUGAGGAUCACCCAUGUAGAAGGUGCGAGAA [JR_Exclu2_Sub050] (puzzle: Exclusion 2)	47.4 nM				112 nM	34.5 nM
AGGGAGCGAGGAUAUACAGAGUAGGAAACUACUCCCUCAGUACAUGAGGAUCACCCAUGUAGAAGGCGCCCGAA [EX2 A.1] (Eterna round: R97, puzzle: Exclusion 2)		38 nM		23.8 nM		
AGGGUGGGAGGAUAUCCAAUAUAUGACAUGAGGAUCACCCAUGUUUCCACUCGUACCUCCGGAGAAGGCCCUCCCA [Ex5 #22] (Eterna round: R97, puzzle: Exclusion 5)		21.5 nM		22.1 nM		
AGGGUUUGAGGAUAUAUCUGGUGGGACAUGAGGAUCACCCAUGUUCAUGUCGUAUCCUCAGUAGAAGGCAGACAGG [Eternabot (Original) Solution 14] (Eterna round: R97, puzzle: Exclusion 5)		13.2 nM		13.4 nM		
AGGUCACAUGAGGAUCACCCAUGUGAGGAUAUAGACUCAAGAGCUUCGGCUCUCAAGUUUAGAAGGCGCUAUGA [EX1 #51] (Eterna round: R97, puzzle: Exclusion 1)		25.8 nM		26.3 nM		
AGUAACAGAGGAUAUACUAUUUUAUGUGUUUGUUAUUUUAAACAUGAGGAUCACCCAUGUAGAAGGCUGAAUGA [JMF 100] (puzzle: Exclusion 2)	23.5 nM					
AGUAACAGAGGAUAUACUGUUUUAUGUGUUUAUUGUUUUGAACAUGAGGAUCACCCAUGUAGAAGGCUGAAUAA [JMF 94] (puzzle: Exclusion 2)	21.7 nM					
AGUAACCGUCACGAAAGUGAUGGUUACACAAGAAAUGAAACAUGAGGAUCACCCAUGUCCUCAUUUGCUCGUCUUAU [Sensor 3 - 38] (puzzle: Sensor v3, turn-off variant 2)	288 nM				176 nM	259 nM
